The source of these data is paper PMC5033702.

For one data set, the target named is DDX5 WT (MBP-DDX5-GST) (UniProt P17844 1-614). Briefly: fluorescence anisotropy.
For data set [1], the target named is DDX5-K144N (MBP-DDX5-GST) (UniProt P17844 1-614, K144N). Briefly: fluorescence anisotropy.
Chain of DDX5-K144N (MBP-DDX5-GST) (P17844 whole entry K144N): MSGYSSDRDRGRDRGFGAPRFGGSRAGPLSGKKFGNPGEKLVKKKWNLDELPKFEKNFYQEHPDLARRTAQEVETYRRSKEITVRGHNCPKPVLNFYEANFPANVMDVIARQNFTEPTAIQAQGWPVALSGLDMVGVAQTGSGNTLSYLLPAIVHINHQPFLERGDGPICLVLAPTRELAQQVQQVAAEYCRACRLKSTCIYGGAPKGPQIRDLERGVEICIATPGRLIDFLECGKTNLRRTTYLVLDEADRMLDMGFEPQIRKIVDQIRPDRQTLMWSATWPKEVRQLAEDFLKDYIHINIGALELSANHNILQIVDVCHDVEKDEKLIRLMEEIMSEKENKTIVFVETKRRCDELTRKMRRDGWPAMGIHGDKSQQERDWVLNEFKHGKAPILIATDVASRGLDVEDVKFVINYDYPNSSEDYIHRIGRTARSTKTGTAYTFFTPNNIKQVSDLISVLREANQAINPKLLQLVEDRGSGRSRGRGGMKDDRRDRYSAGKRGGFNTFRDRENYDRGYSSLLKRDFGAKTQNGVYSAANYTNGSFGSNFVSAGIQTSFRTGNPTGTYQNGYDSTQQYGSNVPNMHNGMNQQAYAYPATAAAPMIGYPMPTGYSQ

Chain of DDX5 WT (MBP-DDX5-GST) (P17844 whole entry): as the sequence (P17844 whole entry K144N) above, with N144K counted along it

Turning to AGCACCGUAAAGACGC (ssRNA) [6-FAM ssRNA 16-mer], the binding result with DDX5 WT (MBP-DDX5-GST) is reported as “binds”. Moreover, the binding signal in data set [1] is ~4 fold reduced affinity vs WT (nearly 4-fold).
